We go through 72 sequences from the supplement of paper PMC10567573.

± gives the standard deviation.

The data set in a line: protein stability index of a GFP-peptide fusion (GPS, HEK-293T) (PSI 1-6); higher = more stable.
[1] abbreviates: treatment: DMSO, c terminus: a fixed tail appended.
The mark [2] stands for this setting: treatment: MLN4924 1 uM, 8 h, c terminus: a fixed tail appended.
[3] abbreviates: treatment: DMSO, c terminus: native.
[4] abbreviates: treatment: MLN4924 1 uM, 8 h, c terminus: native.
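Also: 24-mer peptide tiles fused after GFP, lentivirally expressed, FACS-sorted into six equal bins by GFP/DsRed ratio, decoded by Illumina sequencing, PSI is the read-weighted mean bin number.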

Consider GDDSDLSEGFESDSSHDSARASEG [SMG5], for which the protein stability index worked out at 5.47 ± 0.3 under setting [1] and 5.48 ± 0.13 under setting [2].
For GDLQDTKENREEARFQDKQYSSHH [CHGB] the same measures were 5.18 ± 0.21 and 5.02 ± 0.35.
On to GEGTFGKVVECLDHARGKSQVALK [CLK3], for which the protein stability index runs as follows: under setting [1], 4.45 ± 0.33; under setting [2], 4.66 ± 0.082.
Consider GEGTGSPPKWQIGEQEFEALMRML [ADD1], for which the protein stability index is, setting by setting: under setting [1], 3.29 ± 0.45; under setting [2], 3.2 ± 0.31.
With GEKPFTCHECGKKFSQNSHLIKHR [ZNF75A], the protein stability index runs as follows: under setting [1], 3.44 ± 0.35; under setting [2], 3.9 ± 0.56.
GELRSKSGHKLYIFLFQDILVLTR [NET1]: the protein stability index by setting is: under setting [1], 2.5 ± 0.66; under setting [2], 1.75 ± 0.27.
Consider GELSQARGQEPARADQLCQQELRE [PRPH], for which the protein stability index amounted to 5.26 ± 0.56 under setting [1] and 5.56 ± 0.085 under setting [2].
On to GETDEVTKTEDRELVLRKDCPKIV [ZSCAN9], for which the protein stability index is, setting by setting: under setting [1], 5.48 ± 0.14; under setting [2], 5.44 ± 0.24.
On the same counts, the results for GGAGKEGVRVNNRFELINIDDLED [TCF25] are 4.82 ± 0.49 and 4.91 ± 0.28.
Turning to GGDHRYVNNYTNSFGGEWSAPDTM [TRIM29], the protein stability index is 3.51 ± 0.44 under setting [1] and 3.51 ± 0.32 under setting [2].
On the same counts, the results for GGGGGGGGKSGGIVISPFRLEELT [CCDC6] are 3.34 ± 0.12 and 3.59 ± 0.41.
As for GGGVATSPMLIVFHGKYSTINPLW [GLT8D2], the protein stability index by setting is: under setting [1], 3.02 ± 1.3; under setting [2], 2.36 ± 0.56.
For GGKYLGRTKVVKPYSTVDNPVYYG [EFHC1] the same measures were 2.87 ± 0.33 and 2.97 ± 0.33.
As to GGMQALGLHLTDPSQRLVQNCLWT [CTNNB1], the protein stability index was 2.11 ± 0.13 under setting [1] and 2.1 ± 0.44 under setting [2].
On to GGRALVVRKVPPGYSIKVFDFERS [SMAD6], for which the protein stability index by setting is: under setting [1], 2.52 ± 0.33; under setting [2], 2.37 ± 0.51.
On the same counts, the results for GGRRPGTSPALLQGTAEEDHVDLS [CDKN1A] are 5.46 ± 0.23 and 5.33 ± 0.18.
For GGYFKARLKFPIDYPYSPPAFRFL [CDC34] the same measures were 2.82 ± 0.33 and 2.58 ± 0.51.
On the same counts, the results for GHISLRRENSSDSPKELKRRNSSS [DLC1] are 5.03 ± 0.27 and 5.23 ± 0.15.
As to GHVLLTDSEFSMQEPMVPAKLGTQ [PPFIA4], the protein stability index was found to be 4.31 ± 0.1 under setting [1] and 3.94 ± 0.26 under setting [2].
Take GHWTNVTPMATKRSGAGVALLNDH [KLHL12]: the protein stability index reads like this: under setting [1], 3.48 ± 0.079; under setting [2], 3.62 ± 0.085.
With GIFQAMCLLICAEMYQVSRLQHIC [RHOBTB3], the protein stability index under setting [1] was determined as 2.99 ± 0.59 and the protein stability index under setting [2] was 3.09 ± 0.34.
Regarding GIGYNGMPNGCSDDVLPWRRTAEN [DCTD], the protein stability index runs as follows: under setting [1], 3.03 ± 0.24; under setting [2], 2.87 ± 0.1.
In the case of GKGFRDRNVTGTPLTGDKDDEEVD [ADAMTSL2], the protein stability index runs as follows: under setting [1], 5.59 ± 0.21; under setting [2], 5.51 ± 0.34.
Take GKPLAGIYRKREEKRNAGNAVRSA [KMT5A]: the protein stability index under setting [1] amounted to 4.24 ± 0.35 and the protein stability index under setting [2] was found to be 4.39 ± 0.19.
Consider GLDFLHANCIVHRDLKPENILVTS [CDK4], for which the protein stability index by setting is: under setting [1], 2.49 ± 0.23; under setting [2], 2.61 ± 0.4.
GLDIGAQGEPLGYRQDDPSYRSFH [CTNNB1]: the protein stability index was determined as 4.14 ± 0.12 under setting [1] and 4.22 ± 0.19 under setting [2].
On the same counts, the results for GLDPEPLPLMDLCRRSIRSALGRQ [SPSB4] are 3.79 ± 0.23 and 3.75 ± 0.18.
Turning to GLFAVGEHTGEVRTARALLDRDAL [PCDHGA10], the protein stability index under setting [1] worked out at 3.84 ± 0.57 and the protein stability index under setting [2] was 3.81 ± 0.29.
For the sequence GLGNIWRFPYLCQKNGGGAYLVPY [SLC6A17], the protein stability index is, setting by setting: under setting [1], 2.44 ± 0.43; under setting [2], 2.54 ± 0.49.
As to GLVKKYMNSLLIGELSPEQPSFEP [FADS1], the protein stability index by setting is: under setting [1], 2.25 ± 0.089; under setting [2], 2.34 ± 0.45.
As to GMEGDWSWVDDTPFNKVQSARFWI [CD207], the protein stability index is 1.82 ± 0.3 under setting [1] and 2.25 ± 0.32 under setting [2].
On to GMGLTGTMGMGMPNIAMTSGTVQP [CLINT1], for which the protein stability index was found to be 3.84 ± 0.17 under setting [1] and 3.69 ± 0.13 under setting [2].
Consider GPWSCENFNPLLVAGGVAVAAIAL [CEND1], for which the protein stability index reads like this: under setting [1], 3.34 ± 0.4; under setting [2], 2.58 ± 0.9.
As to GRKPERRRLKTTRLKEYTIKSHSS [DAPK3], the protein stability index reads like this: under setting [1], 3.92 ± 0.17; under setting [2], 4.06 ± 0.29.
With GRLGRWLRSTRFSGSLDRLRETRV [PCDHGC5], the protein stability index under setting [1] turned out to be 3.34 ± 0.18 and the protein stability index under setting [2] was determined as 3.3 ± 0.36.
GRLYVHPDSPATGAHWMRQLVSFQ [TBX5]: the protein stability index is, setting by setting: under setting [1], 2.32 ± 0.26; under setting [2], 2.34 ± 0.2.
Take GRTCITDLQLTVGGAQASGTLIGV [MFSD9]: the protein stability index runs as follows: under setting [1], 2.33 ± 0.31; under setting [2], 2.04 ± 0.3.
For GSAEKQAGEAHMAADGETNGSCEN [EHMT1] the same measures were 5.49 ± 0.37 and 5.6 ± 0.2.
Turning to GSENRNHRLLNMARNNNDPGRLTE [RNF180], the protein stability index reads like this: under setting [1], 4.08 ± 0.22; under setting [2], 4.26 ± 0.24.
On the same counts, the results for GSGADRIYDLNIPAFVKFAYVAER [NCK2] are 2.35 ± 0.29 and 2.36 ± 0.13.
In turn, GSLDNAHHVPGGGNVKIDSQKLNF [MAP2] registered a protein stability index under setting [1] of 4.27 ± 0.18 and a protein stability index under setting [2] of 4.43 ± 0.32.
Turning to GSLGSRAEPAPRAREGGGCGRSEV [SMAD6], the protein stability index reads like this: under setting [1], 4.84 ± 0.15; under setting [2], 4.92 ± 0.11.
GSNGYILNKPALQAQPLRTTSTLA [EHMT1]: the protein stability index came out at 3.59 ± 0.36 under setting [1] and 3.44 ± 0.17 under setting [2].
GSTLIFYKYCDHENAAFKDVALVL [TOR1AIP2] had a protein stability index under setting [1] of 2.43 ± 0.59 and a protein stability index under setting [2] of 2.58 ± 0.73.
For GSYGGFASAPTTPCQKSPNGVRVF [TRIM9] the same measures were 3.17 ± 0.18 and 3.25 ± 0.24.
GTMGMAPLGNTPMMNQSMMGMNMN [CLINT1] came in with a protein stability index under setting [1] of 3.39 ± 0.45 and a protein stability index under setting [2] of 3.52 ± 0.21.
For GTPKDHDSPENGADSFESSDSLLQ [ETS2] the same measures were 5.46 ± 0.23 and 5.47 ± 0.23.
For GVEEIKGHPFFEGVDWEHIRERPA [STK38L] the same measures were 3.97 ± 0.8 and 4.32 ± 0.37.
For the sequence GVEPAPWAQLEAPARLLLQALQAG [FANCE], the protein stability index turned out to be 2.89 ± 0.27 under setting [1] and 2.92 ± 0.38 under setting [2].
In the case of GWVSGQLRYSVVEESEPGTLVGNV [PCDHGC5], the protein stability index under setting [1] amounted to 3.03 ± 0.24 and the protein stability index under setting [2] was found to be 3.07 ± 0.22.
Consider HARARDQGQPAMEGHCVIQVDVGD [PCDHGC5], for which the protein stability index under setting [1] came out at 4.61 ± 0.068 and the protein stability index under setting [2] is 4.58 ± 0.23.
For the sequence HEEEVSVLRCQLGDRLNVEVDAAP [KRT36], the protein stability index under setting [1] was determined as 5.17 ± 0.26 and the protein stability index under setting [2] was found to be 4.95 ± 0.32.
In the case of HFSSIPDAFWWAVVSMTTVGYGDM [KCNA1], the protein stability index by setting is: under setting [1], 3.56 ± 0.34; under setting [2], 3.12 ± 0.29.
With HHLGSGSGAGGTGGPAGQAGRGGA [MYOZ1], the protein stability index amounted to 4.9 ± 0.35 under setting [1] and 5.01 ± 0.33 under setting [2].
Regarding HKRISAFRALQHSYLHKDEGNPE [CDK4], the protein stability index runs as follows: under setting [3], 4.15 ± 0.26; under setting [4], 4.04 ± 0.47.
On to HKRPHVDFFLEVVSQWYELVVFTA [CTDNEP1], for which the protein stability index under setting [1] was determined as 3.06 ± 0.76 and the protein stability index under setting [2] was 2.77 ± 1.2.
For the sequence HLGKEQSRRDDLEALGHMFMYFLR [CSNK1G1], the protein stability index reads like this: under setting [1], 2.61 ± 0.24; under setting [2], 2.25 ± 0.26.
For HLIRHQITHTREEQPHGRSRRREQ [ZNF8], the protein stability index reads like this: under setting [1], 4.57 ± 0.13; under setting [2], 4.75 ± 0.051.
Regarding HMEALEIAANLENKATNTDHLTTV [C8orf76], the protein stability index is 4.76 ± 0.18 under setting [1] and 4.78 ± 0.23 under setting [2].
For the sequence HMSLEKDIAAMTNSLFIDRQKCMA [TEKT4], the protein stability index by setting is: under setting [1], 3 ± 0.18; under setting [2], 3.02 ± 0.23.
On the same counts, the results for HPEVKCVGSVALTALVTVSSEEFE [C8orf76] are 3.27 ± 0.19 and 3.31 ± 0.52.
On the same counts, the results for HQPPQAGAGDVVLLQRELAQEDSL [LYSMD4] are 5.09 ± 0.13 and 5.04 ± 0.15.
With HQRSSSESYTQSFQSRKPFFSWW [PI4K2A], the protein stability index by setting is: under setting [3], 3.41 ± 0.27; under setting [4], 3.7 ± 0.3.
As to HRKRGSQPPDMASALTDRTSRAPS [RSPH3], the protein stability index under setting [1] was 4.89 ± 0.17 and the protein stability index under setting [2] was found to be 4.95 ± 0.18.
HSIALSTFASLIGPFGGFFASGFK [CDS1]: the protein stability index is, setting by setting: under setting [1], 2.57 ± 0.61; under setting [2], 2.64 ± 0.69.
With HVAPLLAAAGLHASPMSADRVVAF [NR2F2], the protein stability index reads like this: under setting [1], 2.27 ± 0.43; under setting [2], 2.24 ± 0.27.
HWALRVTPGLGVVAVLLLFLVVRE [SPNS1]: the protein stability index runs as follows: under setting [1], 2.83 ± 0.47; under setting [2], 2.79 ± 0.59.
Take HWNGRHKPWDFPSVHNDLWESWFV [GLT8D2]: the protein stability index by setting is: under setting [1], 2.28 ± 0.58; under setting [2], 2.54 ± 0.52.
Take IALVENIPEGLNYSENAPFHLSLF [PLD5]: the protein stability index was 2.2 ± 0.83 under setting [1] and 2.25 ± 0.24 under setting [2].
IDEVLLHQDVDLVCINLPPPLTRQ [GFOD1] came in with a protein stability index under setting [1] of 2.83 ± 0.38 and a protein stability index under setting [2] of 2.98 ± 0.43.
For IDNARLAADDFRLKYENELALRQG [KRT15] the same measures were 4.24 ± 0.28 and 4.28 ± 0.45.
Sequence IDYKTTTILLDGRRVRLELWDTSG [RAB40C] showed a protein stability index under setting [1] of 2.25 ± 0.61 and a protein stability index under setting [2] of 2.21 ± 0.26.
